Source: paper doi:10.1101/2024.02.21.581285 (bioRxiv, 2024)

Biological target: the molecule itself
Assay: cryo-EM structure

B1: D. melanogaster copia Gag protein (natural protein)
chain: not shown
Q: Which “stoichiometry N” value does the source give for B1 here?
A: The value was 540 monomers.
